Data on seven molecules can be found in patent US20250277018A1 (published 2025).

As usually defined, the Kd is a measure of binding affinity in units of concentration.

Assay [1] concerns the target Human serum albumin. The assay can be described thus: ELISA; pH 7.4.
The target in assay [2] is T1, Rat serum albumin.
T1 chain: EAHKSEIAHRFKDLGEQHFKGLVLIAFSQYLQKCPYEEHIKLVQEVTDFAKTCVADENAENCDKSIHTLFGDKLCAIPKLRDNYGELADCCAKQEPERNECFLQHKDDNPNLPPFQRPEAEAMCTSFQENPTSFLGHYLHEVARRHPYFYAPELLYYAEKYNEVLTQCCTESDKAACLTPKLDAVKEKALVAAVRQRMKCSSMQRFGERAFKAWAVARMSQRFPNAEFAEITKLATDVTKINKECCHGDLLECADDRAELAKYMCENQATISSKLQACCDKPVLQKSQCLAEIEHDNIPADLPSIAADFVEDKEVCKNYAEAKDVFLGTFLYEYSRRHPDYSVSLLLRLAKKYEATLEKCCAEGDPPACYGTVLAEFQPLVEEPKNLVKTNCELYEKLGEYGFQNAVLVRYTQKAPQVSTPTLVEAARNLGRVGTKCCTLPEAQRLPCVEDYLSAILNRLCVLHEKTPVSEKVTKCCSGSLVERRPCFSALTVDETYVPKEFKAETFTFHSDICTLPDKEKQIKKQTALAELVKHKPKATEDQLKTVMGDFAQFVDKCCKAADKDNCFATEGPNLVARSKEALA
Put plainly: ELISA. Background: An ELISA detects its analyte on a solid surface through an enzyme-linked reagent.

Assay [3] addresses Murine serum albumin. Put plainly: ELISA.
For assay [4], the target named is T2, Cynomolgus monkey serum albumin.
T2 chain: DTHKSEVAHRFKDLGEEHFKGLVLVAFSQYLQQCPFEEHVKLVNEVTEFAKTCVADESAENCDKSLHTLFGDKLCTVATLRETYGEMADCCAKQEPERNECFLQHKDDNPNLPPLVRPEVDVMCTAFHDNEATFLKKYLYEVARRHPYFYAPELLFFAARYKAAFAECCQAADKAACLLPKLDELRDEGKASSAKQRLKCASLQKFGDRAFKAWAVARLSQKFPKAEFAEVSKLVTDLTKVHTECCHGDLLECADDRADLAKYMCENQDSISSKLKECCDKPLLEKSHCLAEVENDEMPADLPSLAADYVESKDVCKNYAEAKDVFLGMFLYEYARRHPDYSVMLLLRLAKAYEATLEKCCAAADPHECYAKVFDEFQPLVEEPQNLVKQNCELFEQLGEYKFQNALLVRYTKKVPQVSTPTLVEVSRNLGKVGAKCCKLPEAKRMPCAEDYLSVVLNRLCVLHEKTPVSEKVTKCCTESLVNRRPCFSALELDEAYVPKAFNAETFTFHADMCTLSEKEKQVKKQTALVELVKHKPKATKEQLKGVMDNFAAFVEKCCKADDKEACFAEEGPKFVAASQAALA
Put plainly: ELISA.

The target in assay [5] is 4A01v5. Put plainly: ELISA.
Assay [6] concerns the target 4A01v4. Put plainly: ELISA.
For assay [7], the target named is 4A01v3. Put plainly: ELISA.
Assay [8] deals with 4A01v6. Put plainly: ELISA.
Assay [9] has as its target 4A01v1. The assay can be described thus: ELISA.
The target of assay [10] is 4A01v3-7. Put plainly: ELISA.
The target of assay [11] is 4A01v3-8. The assay can be described thus: ELISA.
The target in assay [12] is 4A01v3-3. The assay can be described thus: ELISA.
The target of assay [13] is 4A01v3-4. The assay can be described thus: ELISA.
The target of assay [14] is 4A01v9. Put plainly: ELISA.
Assay [15] concerns the target 4A01v3-1. The assay can be described thus: ELISA.
For assay [16], the target named is 4A01v3-5. Put plainly: ELISA.

Sequence of Murine serum albumin (chain, as listed by the source): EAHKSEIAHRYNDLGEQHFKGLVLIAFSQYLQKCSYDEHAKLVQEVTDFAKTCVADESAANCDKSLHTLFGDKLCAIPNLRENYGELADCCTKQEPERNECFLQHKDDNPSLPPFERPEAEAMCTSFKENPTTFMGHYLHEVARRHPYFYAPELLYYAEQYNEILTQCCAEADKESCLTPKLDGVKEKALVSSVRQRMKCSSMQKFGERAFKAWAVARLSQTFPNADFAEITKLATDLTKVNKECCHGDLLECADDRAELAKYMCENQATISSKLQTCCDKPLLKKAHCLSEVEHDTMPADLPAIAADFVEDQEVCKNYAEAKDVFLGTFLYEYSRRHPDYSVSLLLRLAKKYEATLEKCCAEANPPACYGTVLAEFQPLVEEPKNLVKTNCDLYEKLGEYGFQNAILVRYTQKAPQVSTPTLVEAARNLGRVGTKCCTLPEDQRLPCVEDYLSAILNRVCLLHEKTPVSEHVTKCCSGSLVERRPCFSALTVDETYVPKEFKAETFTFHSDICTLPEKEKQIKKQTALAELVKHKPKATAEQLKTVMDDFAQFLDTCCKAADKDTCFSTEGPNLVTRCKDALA

B1: cx12584 (VHH)
chain: GGGGDKTHTCPPCPAPGGPSVFLFPPKPKDTLMISRTPEVTCVVVDVSHEDPEVKFNWYVDGVEVHNAKTKPREEQYNSTYRVVSVLTVLHQDWLNGKEYKCKVSNKALPAPIEKTISKAKGQPREPQVYTLPPSRDELTKNQVSLTCLVKGFYPSDIAVEWESNGQPENNYKTTPPVLDSDGSFFLYSKLTVDKSRWQQGNVFSCSVMHEALHNHYTQKSLSLSPGGGSGGGSGGGSEVQLVESGGGEVQPGGSLRLSCAASGFTFSTSGMVWVRQAPGKGLEWVSTISDDARITVYAESVKGRFTISRDNAKNTVYLQMNSLRAEDTAVYYCATYRAGSRIGSYEDYYRGQGTLVTVKP
As for B1, binding in assay [1] was characterised by a dissociation constant (Kd) of 0.0813 nM.

B2: cx12583 (VHH)
chain: GGGGDKTHTCPPCPAPGGPSVFLFPPKPKDTLMISRTPEVTCVVVDVSHEDPEVKFNWYVDGVEVHNAKTKPREEQYNSTYRVVSVLTVLHQDWLNGKEYKCKVSNKALPAPIEKTISKAKGQPREPQVYTLPPSRDELTKNQVSLTCLVKGFYPSDIAVEWESNGQPENNYKTTPPVLDSDGSFFLYSKLTVDKSRWQQGNVFSCSVMHEALHNHYTQKSLSLSPGSGGGSEVQLVESGGGEVQPGGSLRLSCAASGFTFSTSGMVWVRQAPGKGLEWVSTISDDARITVYAESVKGRFTISRDNAKNTVYLQMNSLRAEDTAVYYCATYRAGSRIGSYEDYYRGQGTLVTVKP
In the case of B2, in [1], the affinity, expressed as Kd, was 0.126 nM.

B3: cx5009, hz4A01v51 VHH-hIgG1-xELL-NNT-Fc (VHH)
VHH: EVQLVESGGGEVQPGGSLRLSCAASGFTFSTSGMVWVRQAPGKGLEWVSTISDDARITVYAESVKGRFTISRDNAKNTVYLQMNSLRAEDTAVYYCATYRAGSRIGSYEDYYRGQGTLVTVKP
In the case of B3, the Kd in [2] came to 0.234 nM; in assay [3], 0.207 nM; in assay [4], 0.189 nM.

B4: cy (other)
chain: T2 chain
Turning to B4, the Kd in [5] was found to be 0.203 nM; in assay [6], 0.247 nM; in [7], 0.338 nM; in assay [8], 0.225 nM; in assay [9], 0.157 nM; in [10], 0.118 nM. For the same molecule, the Kd in assay [11] was determined as 0.147 nM; in [12] it was 0.142 nM; in assay [13], 0.181 nM; in [14], 0.117 nM; in assay [15], 0.127 nM; in assay [16] it was 0.126 nM.

B5: cx12596 (bispecific antibody)
heavy: EVQLVESGGGLEQPGGSLRLSCAGSGFTFRDYAMTWVRQAPGKGLEWVSSISGSGGNTYYADSVKGRFTISRDNSKNTLYLQMNSLRAEDTAVYYCAKDRLSITIRPRYYGLDVWGQGTTVTVSSASTKGPSVFPLAPCSRSTSESTAALGCLVKDYFPEPVTVSWNSGALTSGVHTFPAVLQSSGLYSLSSVVTVPSSSLGTKTYTCNVDHKPSNTKVDKRVGGSGGSEVQLVESGGGEVQPGGSLRLSCAASGFTFSTSGMVWVRQAPGKGLEWVSTISDDARITVYAESVKGRFTISRDNAKNTVYLQMNSLRAEDTAVYYCATYRAGSRIGSYEDYYRGQGTLVTVKPGGGGDKTHTCPPCPAPGGPSVFLFPPKPKDTLMISRTPEVTCVVVDVSHEDPEVKFNWYVDGVEVHNAKTKPREEQYNSTYRVVSVLTVLHQDWLNGKEYKCKVSNKALPAPIEKTISKAKGQPREPQVYTLPPSRDELTKNQVSLTCLVKGFYPSDIAVEWESNGQPENNYKTTPPVLDSDGSFFLYSKLTVDKSRWQQGNVFSCSVMHEALHNHYTQKSLSLSP
light: DIVMTQSPLSLPVTPGEPASISCRSSQSLLYSIGYNYLDWYLQKSGQSPQLLIYLGSNRASGVPDRFSGSGSGTDFTLKISRVEAEDVGFYYCMQALQTPYTFGQGTKLEIKRTVAAPSVFIFPPSDEQLKSGTASVVCLLNNFYPREAKVQWKVDNALQSGNSQESVTEQDSKDSTYSLSSTLTLSKADYEKHKVYACEVTHQGLSSPVTKSENRGEC
As for B5, the affinity in [1], expressed as Kd, was 0.0122 nM.

B6: cx12595 (bispecific antibody)
heavy: EVQLVESGGGLEQPGGSLRLSCAGSGFTFRDYAMTWVRQAPGKGLEWVSSISGSGGNTYYADSVKGRFTISRDNSKNTLYLQMNSLRAEDTAVYYCAKDRLSITIRPRYYGLDVWGQGTTVTVSSASTKGPSVFPLAPCSRSTSESTAALGCLVKDYFPEPVTVSWNSGALTSGVHTFPAVLQSSGLYSLSSVVTVPSSSLGTKTYTCNVDHKPSNTKVDKRVGGSGGSEVQLVESGGGEVQPGGSLRLSCAASGFTFSTSGMVWVRQAPGKGLEWVSTISDDARITVYAESVKGRFTISRDNAKNTVYLQMNSLRAEDTAVYYCATYRAGSRIGSYEDYYRGQGTLVTVKPGGGGESKYGPPCPPCPAPEFLGGPSVFLFPPKPKDTLYISRTPEVTCVVVDVSQEDPEVQFNWYVDGVEVHNAKTKPREEQFNSTYRVVSVLTVLHQDWLNGKEYKCKVSNKGLPSSIEKTISKAKGQPREPQVYTLPPSQEEMTKNQVSLTCLVKGFYPSDIAVEWESNGQPENNYKTTPPVLDSDGSFFLYSRLTVDKSRWQEGNVFSCSVVHEALHNHYTQKSLSLSLG
light: B5 light
Regarding B6, the dissociation constant (Kd) in [1] was 0.0326 nM.

B7: cx12594 (bispecific antibody)
heavy: EVQLVESGGGLEQPGGSLRLSCAGSGFTFRDYAMTWVRQAPGKGLEWVSSISGSGGNTYYADSVKGRFTISRDNSKNTLYLQMNSLRAEDTAVYYCAKDRLSITIRPRYYGLDVWGQGTTVTVSSASTKGPSVFPLAPCSRSTSESTAALGCLVKDYFPEPVTVSWNSGALTSGVHTFPAVLQSSGLYSLSSVVTVPSSSLGTKTYTCNVDHKPSNTKVDKRVESKYGPPCPPCPAPEFLGGPSVFLFPPKPKDTLYISRTPEVTCVVVDVSQEDPEVQFNWYVDGVEVHNAKTKPREEQFNSTYRVVSVLTVLHQDWLNGKEYKCKVSNKGLPSSIEKTISKAKGQPREPQVYTLPPSQEEMTKNQVSLTCLVKGFYPSDIAVEWESNGQPENNYKTTPPVLDSDGSFFLYSRLTVDKSRWQEGNVFSCSVVHEALHNHYTQKSLSLSLGGSGGSEVQLVESGGGEVQPGGSLRLSCAASGFTFSTSGMVWVRQAPGKGLEWVSTISDDARITVYAESVKGRFTISRDNAKNTVYLQMNSLRAEDTAVYYCATYRAGSRIGSYEDYYRGQGTLVTVKP
light: B5 light
In [1], B7 displayed a Kd of 0.118 nM.
